Two molecules from patent publication US20240269203A1 (Janssen / Centocor, published 2024) can be followed below.

The target in assay [1] is human CD40 receptor, stably expressed on HEK293 (HEK-Blue) reporter cells (human) (UniProt P25942).
In a further assay the target is T1, mouse CTLA-4 (mouse, UniProt P09793 36-161).
T1 construct: also called mCTLA-4
As to the kind of experiment: ELISA on immobilized mCTLA-4; supernatant of Vero cells infected with mJP-OV-2 (FIG. 33). (ELISA stands for enzyme-linked immunosorbent assay.)

In assay [1], “hCD40ag (human CD40 agonist payload; Fc-less trimer of single-chain CD40L ectodomain trimer bundles with T4 fibritin trimerization motif), purified (ligand)” yielded an EC50 (read off the curve), CD40 reporter cells, OD 650 nM of 3 ng/mL.

B1: mαCTLA-4 (mouse surrogate anti-CTLA-4 antagonist payload; anti-CTLA-4 VHH fused to the heavy chain of mouse IgG2a Fc), expressed from mJP-OV-2 (Fc fusion)
chain: QVQLVESGGGLAQPGGSLRLSCAASGSTISSVAVGWYRQTPGNQREWVATSSTSSTTATYADSVKGRFTISRDNAKNTIYLQMNSLKPEDTAVYYCKTGLTNWGRGTQVTVSSEPRGPTIKPCPPCKCPAPNLLGGPSVFIFPPKIKDVLMISLSPIVTCVVVDVSEDDPDVQISWFVNNVEVHTAQTQTHREDYNSTLRVVSALPIQHQDWMSGKEFKCKVNNKDLPAPIERTISKPKGSVRAPQVYVLPPPEEEMTKKQVTLTCMVTDFMPEDIYVEWTNNGKTELNYKNTEPVLDSDGSYFMYSKLRVEKKNWVERNSYSCSVVHEGLHNHHTTKSFSRTPGK
notes: also called Mouse CTLA-4 antagonist payload; OVTSB24
Regarding B1, the binding result in the assay with mouse CTLA-4 is given as “binds”.
